{"source": "paper PMC4802596", "about": "“Using the β-glucosidase catalyzed reaction product glucose to improve the ionic liquid tolerance of β-glucosidases” (Biotechnology for Biofuels, 2016)", "key": {"[1]": {"test_system": "O=[N+]([O-])c1ccc(O[C@@H]2O[C@H](CO)[C@@H](O)[C@H](O)[C@H]2O)cc1", "assay": "purified protein", "details": "50 mM potassium phosphate pH 7.2, 52 °C, 5 min, text b17 prints a different Km than Tables 1-3"}, "[2]": {"test_system": "O=[N+]([O-])c1ccc(O[C@@H]2O[C@H](CO)[C@H](O)[C@H](O)[C@H]2O)cc1", "assay": "purified protein", "details": "50 mM potassium phosphate pH 7.2, 52 °C, 5 min"}}}
{"substance": "H0HC94 (Agrobacterium tumefaciens 5A)", "values": [{"measurement": "Km", "setting": "[1]", "result": "3.09 ± 0.40", "unit": "mM"}, {"measurement": "kcat", "setting": "[1]", "result": "278 ± 4", "unit": "s⁻¹"}, {"measurement": "kcat/Km", "setting": "[1]", "result": 89900, "unit": "M⁻¹ s⁻¹"}, {"measurement": "Km", "setting": "[2]", "result": "12.93 ± 2.00", "unit": "mM"}, {"measurement": "kcat", "setting": "[2]", "result": "215 ± 7", "unit": "s⁻¹"}, {"measurement": "kcat/Km", "setting": "[2]", "result": 16600, "unit": "M⁻¹ s⁻¹"}]}
